In series [1] the target is T1, mouse TNFR2-Fc (mouse, UniProt P25119 23-258).
T1 construct: mouse TNF receptor 2 (TNFR2) as an Fc fusion protein; neither the source of the protein nor the kind of Fc is told; Also used here as the TNFR2 of the functional rows (BV-2 cells, T cells, sTNFR2); also called mTNFR2-Fc
T1 sequence (looked up): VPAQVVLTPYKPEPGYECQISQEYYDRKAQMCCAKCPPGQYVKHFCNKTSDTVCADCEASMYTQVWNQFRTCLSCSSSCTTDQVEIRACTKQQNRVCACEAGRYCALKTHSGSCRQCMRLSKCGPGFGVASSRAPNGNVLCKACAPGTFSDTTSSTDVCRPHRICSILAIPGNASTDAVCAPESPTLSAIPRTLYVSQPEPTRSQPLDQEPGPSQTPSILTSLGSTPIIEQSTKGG
Nature of the series: quartz crystal microbalance; TNFR2-Fc chemically immobilised on a carboxyl sensor chip at high density (270 Hz); PBST (PBS, 0.1% Tween 20) pH 7.4, 37°C; analytes 2 to 32 nM; Kd = koff/kon assuming 1:1 binding. The conditions noted are these: both partners purified.

Series [2] concerns the molecule itself. Description: SDS-PAGE under non-reducing conditions; 2 µg purified fusion protein, 8% SDS-PAGE with and without 2-ME, Coomassie staining; disulfide-linked dimer.
Series [3] has as its target T1, mouse TNFR2-Fc. Nature of the series: ELISA; mouse TNFR1-Fc or TNFR2-Fc coated at 1 µg/ml in PBS; fusion proteins in 2% skim milk powder in PBS, 1 h at RT; detected with anti-TNF (HP8001) or anti-his-tag antibody and HRP-conjugated secondary antibody. The following applies: both partners purified. For orientation: ELISA stands for enzyme-linked immunosorbent assay.
Another series deals with T2, mouse TNFR1-Fc (mouse, UniProt P25118 30-212).
T2 construct: mouse TNF receptor 1 (TNFR1) as an Fc fusion protein; neither the source of the protein nor the kind of Fc is told; Also used here as the TNFR1 of the L929 functional rows; also called mTNFR1-Fc
T2 sequence (looked up): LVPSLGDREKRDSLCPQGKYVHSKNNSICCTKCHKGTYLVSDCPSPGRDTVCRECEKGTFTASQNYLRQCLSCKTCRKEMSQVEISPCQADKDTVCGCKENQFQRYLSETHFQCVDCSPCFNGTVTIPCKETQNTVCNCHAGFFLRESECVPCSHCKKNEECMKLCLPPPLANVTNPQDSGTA
The description is as above. The following applies: both partners purified.

B1: IL2-EHD2-sc-mTNFR2 (ligand)
chain: APTSSSTSSSTAEAQQQQQQQQQQQQHLEQLLMDLQELLSRMENYRNLKLPRMLTFKFYLPKQATELKDLQCLEDELGPLRHVLDLTQSKSFQLEDAENFISNIRVTVVKLKGSDNTFECQFDDESATVVDFLRRWIAFCQSIISTSPQPTVKILQSSCDGGGHFPPTIQLLCLVSGYTPGTINITWLEDGQVMDVDLSTASTTQEGELASTQSELTLSQKHWLSDRTYTCQVTYQGHTFEDSTKKCAPVAHVVANHQVEEQLEWLSQRANALLANGMDLKDNQLVVPADGLYLVYSQVLFKGQGCPDYVLLTHTVSRFAISYQEKVNLLSAVKSPCPKDTPEGAELKPWYEPIYLGGVFQLEKGDQLSAEVNLPKYLNFRESGQVYFGVIALPVAHVVANHQVEEQLEWLSQRANALLANGMDLKDNQLVVPADGLYLVYSQVLFKGQGCPDYVLLTHTVSRFAISYQEKVNLLSAVKSPCPKDTPEGAELKPWYEPIYLGGVFQLEKGDQLSAEVNLPKYLNFRESGQVYFGVIALPVAHVVANHQVEEQLEWLSQRANALLANGMDLKDNQLVVPADGLYLVYSQVLFKGQGCPDYVLLTHTVSRFAISYQEKVNLLSAVKSPCPKDTPEGAELKPWYEPIYLGGVFQLEKGDQLSAEVNLPKYLNFRESGQVYFGVIAL
With B1, in the series with mouse TNFR2-Fc [1], the affinity, expressed as Kd, was 0.89 nM and the kon turned out to be 589000 M⁻¹ s⁻¹. Besides, the “stoichiometry N” value in series [2] turned out to be 2. For the same molecule, the EC50 with mouse TNFR2-Fc [3] turned out to be 0.053 nM.

B2: EHD2-sc-mTNFR2 (ligand)
chain: PTVKILQSSCDGGGHFPPTIQLLCLVSGYTPGTINITWLEDGQVMDVDLSTASTTQEGELASTQSELTLSQKHWLSDRTYTCQVTYQGHTFEDSTKKCAPVAHVVANHQVEEQLEWLSQRANALLANGMDLKDNQLVVPADGLYLVYSQVLFKGQGCPDYVLLTHTVSRFAISYQEKVNLLSAVKSPCPKDTPEGAELKPWYEPIYLGGVFQLEKGDQLSAEVNLPKYLNFRESGQVYFGVIALPVAHVVANHQVEEQLEWLSQRANALLANGMDLKDNQLVVPADGLYLVYSQVLFKGQGCPDYVLLTHTVSRFAISYQEKVNLLSAVKSPCPKDTPEGAELKPWYEPIYLGGVFQLEKGDQLSAEVNLPKYLNFRESGQVYFGVIALPVAHVVANHQVEEQLEWLSQRANALLANGMDLKDNQLVVPADGLYLVYSQVLFKGQGCPDYVLLTHTVSRFAISYQEKVNLLSAVKSPCPKDTPEGAELKPWYEPIYLGGVFQLEKGDQLSAEVNLPKYLNFRESGQVYFGVIAL
Take B2: in the series with mouse TNFR2-Fc [1], binding was put at a Kd of 0.12 nM and the kon was 1.2e+06 M⁻¹ s⁻¹. For the same molecule, in series [2], the “stoichiometry N” value is 2. The same molecule displayed an EC50 with mouse TNFR2-Fc [3] of 0.031 nM.

B3: soluble recombinant mouse TNF (ligand, UniProt P06804 80-235, looked up)
chain: LRSSSQNSSDKPVAHVVANHQVEEQLEWLSQRANALLANGMDLKDNQLVVPADGLYLVYSQVLFKGQGCPDYVLLTHTVSRFAISYQEKVNLLSAVKSPCPKDTPEGAELKPWYEPIYLGGVFQLEKGDQLSAEVNLPKYLDFAESGQVYFGVIAL
notes: soluble recombinant mouse tumor necrosis factor (TNF), wild type; Positive control; also called sTNF; wild-type soluble TNF
Turning to B3, the binding result with mouse TNFR1-Fc is recorded as “binds”.

One may read the Kd as a measure of binding affinity in units of concentration. A higher Kd goes with weaker binding. For orientation: kon means the rate constant with which the complex forms. High values mean faster complex formation, low ones slower complex formation. As a reminder, the stoichiometry N is the number of molecules, sites or subunits per partner or assembly. The EC50 is the midpoint of the concentration-response curve.

These data come from publication PMC6930692, “Superior Treg-Expanding Properties of a Novel Dual-Acting Cytokine Fusion Protein” (Frontiers in Pharmacology, 2019).
